One data set addresses T1, EG5 (Pecoramyces ruminantium, UniProt A0A1B1JH60).
T1 construct: whole CDS (nt 1-1251 of transcript; protein length 417) cloned; codon-optimised synthetic gene in pET28a(+) NdeI/XhoI, E. coli, purified
Kind of data set: endoglucanase assay, CellG3 kit, 2-chloro-4-nitrophenol release. It is filed as biochemical. Conditions: printed BDL (below detection limit 500 nM); Lineweaver-Burk extrapolation 0.000003999 mM. The source says: endoglucanase assay, CellG3 kit, 2-chloro-4-nitrophenol release on EG5

Substrate in data set [1]: O=[N+]([O-])c1ccc(O[C@@H]2O[C@H](CO)[C@@H](O[C@@H]3O[C@H](CO)[C@@H](O)[C@H](O)[C@H]3O)[C@H](O)[C@H]2O)cc1
The data set is described as follows: cellobiohydrolase assay, p-nitrophenol release. It is filed as biochemical, Pecoramyces ruminantium. Conditions: 0.1 M sodium acetate buffer, 15 min; pH and temperature of kinetics not stated.

Substrate in data set [2]: O=[N+]([O-])c1ccc(O[C@@H]2O[C@H](CO)[C@@H](O[C@@H]3O[C@H](CO)[C@@H](O[C@@H]4O[C@@H]5COC(c6ccccc6)O[C@H]5[C@H](O)[C@H]4O)[C@H](O)[C@H]3O)[C@H](O)[C@H]2O)c(Cl)c1
Kind of data set: endoglucanase assay, CellG3 kit, 2-chloro-4-nitrophenol release. It is filed as biochemical, Pecoramyces ruminantium. Conditions: pH and temperature of kinetics not stated. The source says: endoglucanase assay, CellG3 kit, 2-chloro-4-nitrophenol release on Cel48

Substrate in the data set “purified protein”: O=[N+]([O-])c1ccc(O[C@@H]2O[C@H](CO)[C@@H](O)[C@H](O)[C@H]2O)cc1
The data set is described as follows: purified protein. To be noted: 0.1 M sodium acetate buffer, 15 min; pH and temperature of kinetics not stated.

Substrate in data set [3]: O=[N+]([O-])c1ccc(O[C@@H]2OC[C@@H](O)[C@H](O)[C@H]2O)cc1
The data set is described as follows: beta-xylosidase assay, p-nitrophenol release. It is filed as biochemical, Pecoramyces ruminantium. To be noted: 0.1 M sodium acetate buffer, 15 min; pH and temperature of kinetics not stated.

On to `O=[N+]([O-])c1ccc(O[C@@H]2O[C@H](CO)[C@@H](O[C@@H]3O[C@H](CO)[C@@H](O[C@@H]4O[C@@H]5COC(c6ccccc6)O[C@H]5[C@H](O)[C@H]4O)[C@H](O)[C@H]3O)[C@H](O)[C@H]2O)c(Cl)c1` (some centres unmarked) [CellG3], for which, at EG5, the Km was less than 0.5 µM.

B1: Cel48 (Pecoramyces ruminantium) (protein)
chain: MPSIRTALTLLGASAVIAAPTKRANDAYAQRVIDTYNAVTGNGSYRSDYFSPENVPYHSVETMMVEAPDQGHESVSETYSFWVWLEAINGKMTGNYDGVNTAWSYLEKHIIPDSKNQPGMSRYNSSSPATYAPEDDDITNYPSKLIFQDGLVGQDPIAAELQQAYGTWDIYAMHWIIDGDNWYGYGQQGDGTTKPSFINTFQRGPSESAWKTVPHPCWEEFKWGGRNGFLDLFTVDNSYAKQWRYTAAPDADARAIQAAYFAYIWAKEDGQNLSSLAGKAAKLGDYLRYAHYDKYFKKIGNCIGYQQCQAGSGKNSAHYLISWYFSWGGGLQGDWSWRIGSSHTHTGYQNPLAAWVLSTESAFKPKGSTAVKDWATSLDRQLELFRWLQAAEGCIAGGATNSWQGHYAQPPSDITSFYGMYYDWQPVYHDPPSNNWTGMQGWGMERVCSLYFLSGNEKAGKVCQDWAKWVKNNVRVNGSEVVHATNFSWSGNPDEWKPANFNKSGLNASLHGTVSTEGIDIGSLASIIKGLMWVSMKDGDQEGIDLAVQVMDAIEQYRDDHGYGVEEAREDYAKFNEEVYIPSGWTGKNAQGANIRNGVKFIDIRPKYKQDPDWPQIENFLNGGEAPRFTYHRFWAQTEIAVANGLISIYGLSDGSGVVPTKPGSCAAAIKAQGYKCCSANCEVVYTDADGDWGVENDEWCGCGGGEPECPAAITNQGYPCCSTCGTVYYTDGDGDWGVENGDWCGMPTDC
notes: whole CDS (nt 87-2342 of transcript; protein length 751) cloned; codon-optimised synthetic gene in pET28a(+) NdeI/XhoI, E. coli, purified
For the molecule B1, in data set [1], the Michaelis-Menten constant (Km) was found to be 8980 µM and the Vmax is 0.357 µmol/min/mg. Also, in data set [2], the Km turned out to be 30100 µM and the Vmax was 0.048 µmol/min/mg.

B2: BGL3 (Pecoramyces ruminantium) (protein)
chain: TWEEADAKAREWCSDLTNEEKIALITGRENMTGVCVGSIDPIERKGFKGLCLQDGPAGVRFAKGTATSWQASINTAATFDRTLLRKVGEAQGNEFYQRGINVALAPSMGIQRAPAAGRIFESYGEDPFYVGQCGLEVLKGIQSQGVIANAKHYIANDQENNRGASTSNVPEQALWEVYMEPFYRTVVEGEAGTVMASYNAINGTYSTQNKRLLTDYLKGKLGFKGFVMSDWWAIFDVEKSFGNGTDMNMPGGKYWGPDYVGDSFWGEHIQECIDNGVFPQERLDDAVLRIIRTLYKLDQMDDYPEVNLYVDTNTKENAALNRKVGADSNVLLKNADNILPIKKSKKVKKIAVIGKDSMPPTLCEDMKCANGTLPLGWGSGTTDFKYVVDPLSAITKRAKKSKISVVSYGEDDAKKAAKVAKKADVAIVFVQADSGEEYITVEGNAGDRLNLDLWHGGNELIEAVAAVNKNTIVVIHAPGPVNVPFLDKVKGIIFAGLPGQETGNAITDVLFGDVNPSGHLPYTWAPREDYPTDVKYEPEYPDGGEKMTVYDYNEGLFVGYRWFDKKEIEPTFAFGYGLSYTTFEFSDLEATMEDDGLYVSLTVTNTGKVAGAAVPMIFLSFPESVKDYPIRLFKGFDKVMLKAGESKETTIFIDAHGLSYFDVEKMEYVRPKDGEFTVYAGSNARDLPLNVKVLANGDEI
notes: about residues 22-721; pET28a(+) NdeI/XhoI, codon-optimised, E. coli, purified
With B2, in “purified protein”, the Michaelis constant (Km) is 275 µM and the Vmax was determined as 1.55 µmol/min/mg. For the same molecule, in data set [3], the Km was found to be 50600 µM and the maximal velocity (Vmax) was 0.068 µmol/min/mg.

B3: EG5 (Pecoramyces ruminantium) (protein)
chain: TLLGLAIIGTKAMRNISSKELVKELTIGWSLGNTLDATCFETLNYAKDQTASETCWGNVKTTQELYYKLNDLGFNTFRIPTTWSGHFGDGPDYKISEAWMKRVHEIVDYALNADGYAILNIHHETWNHAFQKNLESAKKILVAIWKQIAAEFADYDEHLIFEGMNEPRKVGDAAEWNGGDYEGWNFVNEMNDLFVKTIRATGGNNALRHLMIPTYAACVNDGAINNFRFPSGDDKVIVSLHSYSPYNFALNNGAGAISNFNDGSEIDWVMNTINSSFISKGIPVIIGEFGAMNRNNEADREKWAEYYIKKATSLGIPCVIWDNGYFEGEGERFGLIDRKSLNVVYPRLVNGLMKGLGDKKPKTTKVRTTTTTTIQVQPTNNNDCFSTKLGYDCCNGCEVFYTDNDGKWGVENGNWCG
Consider B3, for which, in the data set “purified protein”, the Km turned out to be 84000 µM and the Vmax amounted to 0.45 µmol/min/mg.

B4: XYL11 (Pecoramyces ruminantium) (protein)
chain: GSGTSGTADFPYAKVYIGNQQNQPSYQPTTTRNNSQPTSPATGGSSGEICSASGHSGESTKVTSNKVGSINGIGYELWADSGNNSATFYSDGSFSCTFQNAKDYLCRSGLSFDSTKTHSQIGHLYADFKLVKQGISNVDYSYVGIYGWTRSPLVEFYIVDNWLSQYRPGDWVGNKKHGDFTIDGAQYTVYENTRTGPSIDGNTQFKQYFSIRKTARDCGTIDITAHFQQWEKLGMTMGKMHEAKVLGEAGSNGSGTSGTADFPYAKVYTGS
For the molecule B4, in the data set “purified protein”, the Km amounted to 216 µM and the maximum rate (Vmax) stood at 0.28 µmol/min/mg.

B5: BGL1 (Pecoramyces ruminantium) (protein)
chain: IVKPAADAAADVASDAEVVASDEENPLDNGEDSADDTPKGKLPSDFKWGAATAAYQVEGAWNEEGRGESVWDHFTHLYPKNVESGDRSNKDSTNGNVACDSYHKFDEDIKMMKIMNANHYRFSISWSRLFPDGQAKKVDGEWNVNEAGAQYYDMVIDTLLDNDIIPLATLYHWDLPYALHEKYGGWLDYHSQFDFAKYAEFCFERYGDRVKGWITINEPWVNCVAGYKNGPGKAPYRCTGEAPRKLANDTTGLDLEGGCSYEIGPSQYTKDSEVLPANRPPQKLEDVWCSHNILLGHAQAVKVYREKFQKEQKGLIGITIDGEAQIPWEEPGMSEEEYENNKKYANLAAEFRIGWYSDPVMFGDYPESVKQRNGKDMPVFTDEEKKLLKGSSSDFLGWNTYTSHWAAQVKNEDGSYVEPPTDEEASYDNSKRDMWDDNCKGRGDGWTCIPPTLGSQAGSSWNTKYGPTIRVGLNWFSKRYEGIIKNGIIITENGCAQPNYKVSRANDQVTLDYWKSIGKEEFADTYDEDIIEDESDLEGTLIHDTYRIDWYKQYLENLRLAYVEDGVDVRGYMAWSLVDNFEWENGYETRFGMTYIDFYNDKDLKRVPKDSLTFLGQWYLDNVEQE
Take B5: in “purified protein”, the Michaelis-Menten constant (Km) is 164 µM and the maximal velocity (Vmax) amounted to 5.41 µmol/min/mg.

B6: Cel6A (Pecoramyces ruminantium) (protein)
chain: PKSSGGSTTTPVNPGDVDATPGDQLTLSGNPFSGVEFYINPYYVAEVDGAIAQMTDSSLKAKAEKMKTYSNAIWLDTIKNMNSWLESNLKGALAQQTGSKKVLTVFVVYDLPGRDCHALASNGELLANSSDAQRYKTEYIDVIEKHLKTYKSQPVALIVEPDSLANLVTNLESTPACRDSESYYLDGHAYLIKKLGVLPHVAMYLDIGHAFWLGWDDNREKAGKVYAKVIQSGSPGKVRGFTDNVSNYTPWEDPTLSRGPDTEWNPCPDEKRYLEAMHKDFKAAGISSVYFVSDTSRNGHKTDRKHPGEWCNQTGVGIGARPQASPISGMDYLDAFYWIKPLGESDGTSDESAVRFDGYCGHETAMKPAPEAGQWFQKHFEQGLENANPPL
notes: whole CDS (nt 2-1177 of transcript; protein length 391) cloned; codon-optimised synthetic gene in pET28a(+) NdeI/XhoI, E. coli, purified
Turning to B6, in data set [1], the Michaelis-Menten constant (Km) was 228 µM and the Vmax came to 3.27 µmol/min/mg.

The record behind these values is publication PMC4933900, “Defined enzyme cocktail from the anaerobic fungus Orpinomyces sp. strain C1A effectively releases sugars from pretreated corn stover and switchgrass” (Scientific Reports, 2016).
